One assay deals with PC3 cells. The experiment in a line: In vitro cell viability (cell kill) assay, CCK8. The class given is cell-based, human. An excerpt: (§1) PRLR-overexpressing cells, including HEK293, PC3, MCF7 and NCI-N87, were generated to assess the ability of anti-PRLR conjugated antibodies to reduce cell viability. For comparative purposes, PC3 and T47D cells with overexpressed ErbB2 were also generated, as well as an MCF7 cell line over-expressing both hPRLR and hErbB2. Briefly, Lipofectamine® 2000-mediated transfection methodology was utilized to generate HEK293 cells expressing human PRLR (HEK293/hPRLR) or human ErbB2 (HEK293/hErbB2). Lipofectamine LTX with Plus Reagent was used to generate PC3 cells expressing human PRLR (PC3/hPRLR) or human ErbB2 (PC3/hErbB2). Lentiviral-mediated transduction was utilized to generate MCF7 cells expressing human PRLR (MCF7/hPRLR), NCI-N87 cells expressing human PRLR (NCI-N87/hPRLR), T47D cells over-expressing human ErbB2 (T47D/hErbB2), and MCF7 cells expressing both human PRLR and human ErbB2 (MCF7/hPRLR/hErbB2). All lines were selected for at least two weeks in complete growth media plus appropriate selection reagents. Stably expressing populations were enriched for PRLR expression via FACS using the anti PRLR antibody Control I.
(§2) Next, the ability of anti-PRLR-DM1 antibody-drug conjugates (i.e., anti-PRLR antibodies conjugated to DM1 via a non-cleavable linker [SMCC]) to reduce cell viability was determined using in vitro cell based assays. Cells were seeded in PDL-coated 96 well plates at 1500 to 10000 cells per well in complete growth media and allowed to grow overnight. For cell viability curves, ADCs or free DM1 (as the methyl disulfide derivative DM1-SMe) were added to the cells at final concentrations ranging from 500 nM to 5 pM and incubated for 3 days. The 293, PC3 and T47D cells were incubated with CCK8 (Dojindo, Rockville, Md.) for the final 1-3 hours and the absorbance at 450 nm (OD450) was determined on a Flexstation3 (Molecular Devices, Sunnyvale, Calif.). MCF7 cells were treated with Hoechst 33342 nuclear stain while being fixed with 4% formaldehyde. Images were acquired on the ImageXpress micro XL (Molecular Devices, Sunnyvale, Calif.) and nuclear counts were determined via Columbus image analysis software (Perkin Elmer, Shelton, Conn.). Background OD450 values (PC3, 293, and T47D) or nuclear counts (MCF7) from digitonin (40 nM) treated cells was subtracted from all wells and viability was expressed as a percentage of the untreated controls. IC50 values were determined from a four-parameter logistic equation over a 10-point response curve (GraphPad Prism).

Another assay relates to HEK293 (293) cells. In words: In vitro cell viability (cell kill) assay, CCK8. In kind it is cell-based, human. Conditions: 293; Table 19.
From the text: as §1, §2

B1: H1H6953N-SMCC-DM1 (conjugate)
VH: EVQLLESGGGLVQPGGTLRLSCAASGFTFSAYAMSWVRQAPGKGLEWVSSINVRAGDTYYADSVKGRFTISRDNSKNTLFLLMNSLRAEDTAAYYCAKARYSSNWGFDFWGQGTLVTVSS
VL: DIVMTQSPDSLTVSLGARTTINCQSSQTILHSSNNHNYLAWYQQKPGLPPKLLIYWSSTRESGVPDRFSGSGSGTDFTLTISSLQAEDVAIYYCQQYSNTPYTFGQGTKLEIN
B1: the “% Kill” value in the assay on PC3 cells (Table 18) was found to be 81%.

B2: H1H6953N-mc-VC-PAB-MMD (conjugate)
VH: EVQLLESGGGLVQPGGTLRLSCAASGFTFSAYAMSWVRQAPGKGLEWVSSINVRAGDTYYADSVKGRFTISRDNSKNTLFLLMNSLRAEDTAAYYCAKARYSSNWGFDFWGQGTLVTVSS
VL: DIVMTQSPDSLTVSLGARTTINCQSSQTILHSSNNHNYLAWYQQKPGLPPKLLIYWSSTRESGVPDRFSGSGSGTDFTLTISSLQAEDVAIYYCQQYSNTPYTFGQGTKLEIN
In turn, B2 registered an IC50 in the assay on HEK293 (293) cells of 110 nM.

B3: H1H6953N-mc-VC-PAB-MMAE (conjugate)
VH: EVQLLESGGGLVQPGGTLRLSCAASGFTFSAYAMSWVRQAPGKGLEWVSSINVRAGDTYYADSVKGRFTISRDNSKNTLFLLMNSLRAEDTAAYYCAKARYSSNWGFDFWGQGTLVTVSS
VL: DIVMTQSPDSLTVSLGARTTINCQSSQTILHSSNNHNYLAWYQQKPGLPPKLLIYWSSTRESGVPDRFSGSGSGTDFTLTISSLQAEDVAIYYCQQYSNTPYTFGQGTKLEIN
For B3, in the assay with PC3 cells (Table 18), the “% Kill” value was determined as 49% and half-maximal inhibition (IC50) required 130 nM.

B4: H1H6953N-mc-VC-PAB-MeNHC3-May (conjugate)
VH: EVQLLESGGGLVQPGGTLRLSCAASGFTFSAYAMSWVRQAPGKGLEWVSSINVRAGDTYYADSVKGRFTISRDNSKNTLFLLMNSLRAEDTAAYYCAKARYSSNWGFDFWGQGTLVTVSS
VL: DIVMTQSPDSLTVSLGARTTINCQSSQTILHSSNNHNYLAWYQQKPGLPPKLLIYWSSTRESGVPDRFSGSGSGTDFTLTISSLQAEDVAIYYCQQYSNTPYTFGQGTKLEIN
Regarding B4, the “% Kill” value with HEK293 (293) cells worked out at 20%.

B5: H1H6782P-mc-VC-PAB-MMD (conjugate)
VH: EVQLVESGGGLVQPGRSLRLSCAASGFTFDDYAMHWVRQAPGKGLEWVSGIIWNSGHIGYGDSVKGRFTISRDNAKKSLYLQMNSLRAEDTALYYCARDSGRYQSYFDYWGQGTLVTVSS
VL: DIQMTQSPSTLSASVGDRVTITCRASHIISSWLAWYQQKPGKAPKVLIFKASSLESGVPSRFSGSGSGTEFTLTISSLQPDDFATYYCQQYNTYSRTFGQGTKVEIK
For B5, in the assay with HEK293 (293) cells, the IC50 amounted to 230 nM.

B6: H1H6782P-mc-VC-PAB-MeNHC3-May (conjugate)
VH: EVQLVESGGGLVQPGRSLRLSCAASGFTFDDYAMHWVRQAPGKGLEWVSGIIWNSGHIGYGDSVKGRFTISRDNAKKSLYLQMNSLRAEDTALYYCARDSGRYQSYFDYWGQGTLVTVSS
VL: DIQMTQSPSTLSASVGDRVTITCRASHIISSWLAWYQQKPGKAPKVLIFKASSLESGVPSRFSGSGSGTEFTLTISSLQPDDFATYYCQQYNTYSRTFGQGTKVEIK
Consider B6, for which the IC50 in the assay with HEK293 (293) cells was found to be 60 nM.

B7: H1H6765P-SMCC-DM1 (conjugate)
VH: EVQLVESGGGVVRPGGSLRLSCVGSGFSFDDHGMNWVRQGPGKGLEWVSGFNWNGGSTNYAESVKGRFTISRDNARNSLFLQMNSLRAEDTALYYCVRGRSGWFNDAFDVWGPGTMVTVSS
VL: EIVLTQSPGTLSLSPGERATLSCRASQTINSNYLAWYRQKPGQTPRLLIYGTSSRATGIPDRFSGSGSGTDFSLTISRLEPEDFAVFYCQQYAGLPTFGPGTKVDIK
In the case of B7, in the assay on PC3 cells (Table 18), the “% Kill” value worked out at 80% and the concentration for half-maximal inhibition (IC50) was determined as 80 nM.

B8: H1H6765P-mc-VC-PAB-MMAE (conjugate)
VH: EVQLVESGGGVVRPGGSLRLSCVGSGFSFDDHGMNWVRQGPGKGLEWVSGFNWNGGSTNYAESVKGRFTISRDNARNSLFLQMNSLRAEDTALYYCVRGRSGWFNDAFDVWGPGTMVTVSS
VL: EIVLTQSPGTLSLSPGERATLSCRASQTINSNYLAWYRQKPGQTPRLLIYGTSSRATGIPDRFSGSGSGTDFSLTISRLEPEDFAVFYCQQYAGLPTFGPGTKVDIK
As to B8, in the assay with PC3 cells (Table 18), the “% Kill” value was found to be 29%.

B9: H1H6975P-mc-VC-PAB-MMD (conjugate)
VH: EVHLVESGGGLVQPGGSLRLSCAASGFTFSSYEMNWVRQTPGKGLEWISHISSRSVIIYYADSVKGRFTISRDNAKNSLFLQMNSLRAEDTAVYFCAGITIFGIPEYWGQGTLVTVSS
VL: EIVLTQSPATLSLSPGERATLSCRASQSVSSYFAWYQQKPGQAPRLLIYDASSRATGIPTRFSGSGSGTDFTLTISSLEPEDFAVYYCQQRSSWPITFGQGTRLEIK
Turning to B9, the midpoint of inhibition with HEK293 (293) cells, the IC50, lay at 110 nM.

B10: H1H6800P-DM1 (conjugate)
VH: EVQLVESGGGLVQPGRSLRLSCAASGFTFDGYAMHWVRQGPGKGLEWVSGISWYSDTLGYADSVKGRFTISRDNAKNSLYLQMNSLRTEDTAFYYCAKISSSGWAFDYWGQGTLVTVSS
VL: EIVLTQSPGTLSLSPGERATLSCRASHSVSSAYLAWYQQKPGQTPRLLIYGTSSRATGIPDRFSGSGSGTDFTLTISRLEPEDFAVYYCQQYGSSPLFTFGPGTKVDIK
For B10, in the assay on PC3 cells (Table 11, 3 days), the “% Kill” value was determined as 72%.

The IC50 is the concentration that gives 50% inhibition.

These data come from US10925971B2, “Methods of treating PRLR positive breast cancer” (Regeneron Pharmaceuticals, Inc., priority 2016, dated 2021).
